Measured values: publication PMC5882628, “Development of a Cell-Based Assay to Assess Binding of the proNGF Prodomain to Sortilin” (Cellular and Molecular Neurobiology, 2017)

Tested on: empty vector control-transfected cells
Test: GSTpro signal in empty vector control-transfected HEK293 cells
Type: cell-based, human
Conditions: Fig. 3a, c, d
Method: HEK 293 cells were grown in DMEM with 10% fetal bovine serum. They were transfected with plasmids either encoding wild type sortilin, or sortilin with a mutation that renders it endocytosis deficient, or an empty control vector according to manufacturer’s instructions using 20 µg lipofectamine (Thermo Fischer Scientific) with 8 µg DNA on […] per 6 cm, poly-lysine coated dish. The cells were initially plated into 24-well dishes after transfection. That intermediate step rendered more uniform cell numbers in the 96-well dishes that were used to run the actual assay. 24 h later, cells were split into black opaque-walled, clear-bottom 96 well dishes at 42000 cells in 80 µl medium/well. […]
The fixed cells were washed with PBS for 15 min, followed by two 15 min washes with PBS with 0.1% Triton X-100. […] Wells to be evaluated for blocking of the sortilin-GSTpro interaction by antibodies were only stained with an antibody against the pro domain of proNGF in 10% FBS at a dilution of 1:1500 (Millipore (N-term) clone EPI318Y, Rabbit Monoclonal Antibody Catalog Number: #04-1142). […]
The following day, wells were washed 3 × 15 min with PBS/0.1% Triton X-100. […] Cellular fluorescence was quantified using an array scanner and the “Neuronal Profiler” Bioapplication (Thermo Fisher Scientific) as described below. […]

B1: GSTpro: fusion of Glutathione S-transferase (GST) merged at the C-terminal of GST to the pro part (19–121) of human proNGF (protein)
chain: EPHSESNVPAGHTIPQAHWTKLQHSLDTALRRARSAPAAAIAARVAGQTRNITVDPRLFKKRRLRSPRVLFSTQPPREAADTQDLDFEVGGAAPFNRTHRSKR
modifications: left off: GST, N-terminal, kept
notes: fusion of Glutathione S-transferase (GST) merged at the C-terminal of GST to the pro part (19–121) of human proNGF
GSTpro binding signal in empty vector cells (in words): only very low signal
